Measured values as given in publication PMC4503747.
Where “and” joins values, the source holds several entries; their conditions need not be identical. Equal entries are not always repeated.

Biological target: GST-Yih1[2–258], overexpressed in yeast from a galactose-inducible promoter (S. cerevisiae) (UniProt P25637)
Experiment: pull-down; in vivo GST pull-down: GST fusions overexpressed in yeast from a galactose-inducible promoter (yih1Δ strains; gcn1Δ strain H2556 for the fragments; also cells arrested in G1 with α-factor and released), WCE (1-2 mg) on glutathione beads, immunoblot for endogenous proteins

Chain of GST-Yih1[2–258], overexpressed in yeast from a galactose-inducible promoter (S. cerevisiae) (P25637 2-258): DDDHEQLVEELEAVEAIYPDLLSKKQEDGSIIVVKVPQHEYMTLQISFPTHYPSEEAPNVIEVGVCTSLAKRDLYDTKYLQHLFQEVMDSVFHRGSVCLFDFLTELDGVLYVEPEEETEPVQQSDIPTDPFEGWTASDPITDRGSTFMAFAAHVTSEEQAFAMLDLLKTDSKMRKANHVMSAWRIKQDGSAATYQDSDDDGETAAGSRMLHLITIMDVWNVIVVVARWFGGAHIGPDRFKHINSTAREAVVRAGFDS

fold increase of precipitated Cdc28 relative to GST-Yih1 in S-G2/M (30, 60 and 90 minutes after release) against cells arrested in G1 with α-factor: 2 fold and 3 fold
Substance: Cdc28 (endogenous, yeast whole cell extract) (from UniProt P00546 1-298) (natural protein)
